Measurements taken from patent US20110293511A1, “SPECIFIC BINDING PROTEINS AND USES THEREOF” (priority 2009, published 2011).
Values joined by “and” are separate entries in the source; they are usually repeats but may differ in a detail not shown here. Equal entries are not always repeated. “Also recorded” adds a separate entry of the source. Marks after values point to notes of the source that are not given here.

Experiments:
U87MG cells = experiment: binding to cell lines by FACS; set-up: species or system human; conditions: parental U87MG
Experimental: (§1) Briefly, cells were labelled with the relevant antibody (10 μg/ml) followed by fluorescein-conjugated goat anti-mouse IgG (1:100 dilution; Calbiochem San Diego, Calif., USA; Becton-Dickinson PharMingen, San Diego, Calif., US) as described previously (Nishikawa et al., 1994). FACS data was obtained on a Coulter Epics Elite ESP by observing a minimum of 5,000 events and analyzed using EXPO (version 2) for Windows.
(§2) Stained cells were analyzed with a FACS Calibur using Cell Quest software (Becton-Dickinson PharMingen). […] 1. Mouse IgG2a or IgG2b was used as an isotype control.
(§3) Cell lines and antibodies were prepared as described in Example 1. […] Cells (1 3 10 6) were incubated with 5 μg/ml of the appropriate antibody or an isotype-matched negative control in PBS containing 1% HSA for 30 min at 4° C. After three washes with PBS/1% HSA, cells were incubated an additional 30 min at 4° C. with FTTC-coupled goat anti-mouse antibody (1:100 dilution; Calbiochem, San Diego, Calif.). After three subsequent washes, cells were analyzed on an Epics Elite ESP (Beckman Coulter, Hialeah, Fla.) by observing a minimum of 20,000 events and analyzed using EXPO (version 2) for Windows.

U87MG.wtEGFR cells = experiment: binding to cell lines by FACS; set-up: species or system human
Experimental: as §1, §2, §3

U87MG.DK cells = experiment: binding to cell lines by FACS; set-up: species or system human
Experimental: Populations expressing similar levels of the various EGFR alleles (these expression levels correspond approximately to an amplification level of 25 gene copies; human glioblastomas typically have amplification levels from 10 to 50 gene copies of the truncated receptor) were selected by FACS as described previously (Nishikawa et al., 1994) and designated as U87MG.ΔEGFR, U87MG.DK, U87MG.wtEGFR, LN-Z308.ΔEGFR, LN-Z308.DK, LN-Z308.wtEGFR, A1207.ΔEGFR, A1207.DK, and A1207.wtEGFR, respectively. Each was maintained in medium containing G418 (U87MG cell lines, 400 μg/ml; LN-Z308 and A1207 cell lines, 800 μg/ml).
as §2

HN5 and MDA-468 cells = experiment: binding to cell lines by FACS; set-up: species or system human; conditions: HN5 and MDA-468, both cell lines
[1] = target: T1, sEGFR (recombinant extracellular domain of the wild-type EGFR) (Homo sapiens, UniProt P00533); experiment: ELISA on sEGFR coated plates; assay type: binding
T1 construct: sEGFR is the recombinant extracellular domain (amino acids 1-621) of the wild-type EGFR); host or cells: CHO cells
Experimental: Two types of ELISA were used to determine the specificity of the antibodies. […] Growth Factors. 18, 11-29). Antibodies were added to wells in triplicate at increasing concentration in 2% HSA in phosphate-buffered saline (PBS).

U87MG xenografts = experiment: s.c. xenograft therapy study; assay type: in vivo, nude mice; conditions: 1 mg per injection
Experimental: (§4) Tumor cells (3×10^6) in […] of PBS were inoculated subcutaneously into both flanks of 4-6 week old female nude mice (Animal Research Centre, Western Australia, Australia). […] Treatment was continued for a total of 6 doses, 3 times per week for 2 weeks. In the established model, treatment was started when tumors had reached a mean volume of 65±6.42 mm^3 (U87MG.Δ2-7), 84±9.07 mm3 (U87MG), 73±7.5 mm^3 (U87MG.wtEGFR) or 201±19.09 mm^3 (A431 tumors). Tumor volume in mm^3 was determined using the formula […], where length was the longest axis and width the measurement at right angles to the length (Clark et al. (2000) Therapeutic efficacy of anti-Lewis (y) humanized 3S 193 radioimmunotherapy in a breast cancer model: enhanced activity when combined with Taxol chemotherapy. Clin. Cancer Res. 6, 3621-3628). Data was expressed as mean tumor volume±S.E. for each treatment group. Statistical analysis was performed at given time points using Student's t-test. Animals were euthanized when the xenografts reached an approximate volume of 1.5 cm^3 and the tumors excised for histological examination. This research project was approved by the Animal Ethics Committee of the Austin and Repatriation Medical Centre.

U87MG.wtEGFR xenografts = experiment: s.c. xenograft therapy study; assay type: in vivo, nude mice; conditions: established model; day control animals were sacrificed; 1 mg injections
Experimental: as §4

[2] = system: panel of 12 different malignancies; experiment: immunohistochemistry of tumor panel; assay type: binding, human
Experimental: Immunohistochemical analysis was performed using […] sections of fresh frozen tissue applied to histology slides and fixed for 10 minutes in cold acetone. Bound primary antibody was detected with biotinylated horse anti-mouse antibody followed by an avidin-biotin-complex reaction. Diaminobenzidine tetrahydrochloride (DAB) was used as chromogen. The extent of the immunohistochemical reactivity in tissues was estimated by light microscopy and graded according to the number of immunoreactive cells in 25% increments as follows:
The extent of de2-7 EGFR in other tumor types was examined using a panel of 12 different malignancies. […] This staining was strongly dependent on antibody concentration used and was considered nonspecific background reactivity.

[3] = target: T2, EGFR from U87MG.wtEGFR and A431 cells (Homo sapiens, UniProt P00533); experiment: immunoprecipitation and Endo H digestion; assay type: binding; conditions: majority / bulk of the material
T2 construct: endogenous in cells; host or cells: A431 (endogenous, amplified gene) and U87MG.wtEGFR (U87MG transfected with wtEGFR)
Experimental: This possibility was tested by immunoprecipitating the EGFR from different cells lines labelled overnight with ^35S methionine/cysteine and then subjecting the resultant precipitates to Endoglycosidase H (Endo H) digestion. This enzyme preferentially removes high mannose type carbohydrates (i.e. immature glycosylation) from proteins while leaving complex carbohydrates (i.e. mature glycosylation) intact.

DU145 xenografts = experiment: s.c. xenograft therapy study; assay type: in vivo, nude mice; conditions: day 67; 1 mg i.p.; control 1145

B1: mAb806: murine IgG2b monoclonal antibody, clone 806, ATCC PTA-3858; VH SEQ ID NO:2, VL SEQ ID NO:4 (antibody, listed as Mus musculus, V domains shown)
VH: MRVLILLWLFTAFPGVLSDVQLQESGPSLVKPSQSLSLTCTVTGYSITSDFAWNWIRQFPGNKLEWMGYISYSGNTRYNPSLKSRISITRDTSKNQFFLQLNSVTIEDTATYYCVTAGRGFPYWGQGTLVTVSA
VL: MVSTAQFLAFLLLWFPGARCDILMTQSPSSMSVSLGDTVSITCHSSQDINSNIGWLQQRPGKSFKGLIYHGTNLDDEVPSRFSGSGSGADYSLTISSLESEDFADYYCVQYAQFPWTFGGGTKLEIKR
FACS staining (U87MG cells): binding levels similar to the control antibody; also recorded: not with U87MG cells | FACS staining (U87MG.wtEGFR cells): stained; also recorded: reacted weakly | FACS staining (U87MG.DK cells): reacted intensely | FACS staining (HN5 and MDA-468 cells): clearly stained | inhibition of binding to immobilized sEGFR by sEGFR in solution ([1]; ELISA): unable to inhibit | binding to immobilized wild-type sEGFR ([1]; ELISA, up to 10 μg/ml): dose-dependent and saturating binding curves | inhibition of binding to immobilized sEGFR by denatured sEGFR in solution ([1]; sEGFR heated 10 min at 95° C.): able to inhibit | effect on xenograft growth (U87MG xenografts; established model): no effect | effect on xenograft growth (U87MG xenografts; preventative model): no effect | mean tumor volume (U87MG.wtEGFR xenografts): 468±78.38 mm^3 and 500±80 mm^3 | positive tumors / tumors tested ([2]; Colonic carcinoma): 0/10 | positive tumors / tumors tested ([2]; Head + neck cancer (sqcc)): 7/11 | positive tumors / tumors tested ([2]; Leiomyosarcoma): 0/5 | positive tumors / tumors tested ([2]; Liposarcoma): 0/5* | positive tumors / tumors tested ([2]; Lung (sqcc, adeno, neuroend)): 6/12 | positive tumors / tumors tested ([2]; Malignant melanoma metastases): 0/10 | positive tumors / tumors tested ([2]; Mammary gland): 1/10 | positive tumors / tumors tested ([2]; Mfh Malignant fibrous histiocytoma): 0/5* | positive tumors / tumors tested ([2]; Ovary (serous-papillary)): 0/5 | positive tumors / tumors tested ([2]; Seminoma): 0/10 | positive tumors / tumors tested ([2]; Synovial sarcoma): 0/5* | positive tumors / tumors tested ([2]; Urinary bladder (tcc, sqcc, adeno)): 3/10* | tumors with positive staining ([2]; head and neck tumors): 64% | tumors with positive staining ([2]; lung carcinomas): 50% | tumors with positive staining ([2]; urinary tumors): 30% | Endo H sensitivity of the precipitated EGFR [3]: sensitive to Endo H | mean tumor volume (DU145 xenografts): 605 mm^3
